B1: LetB periplasmic portion (residues 43-877) (domain or fragment, E. coli, UniProt P76272 43-877, looked up)
chain: QDRGNTVTIDFMSADGIVPGRTPVRYQGVEVGTVQDISLSDDLRKIEVKVSIKSDMKDALREETQFWLVTPKASLAGVSGLDALVGGNYIGMMPGKGKEQDHFVALDTQPKYRLDNGDLMIHLQAPDLGSLNSGSLVYFRKIPVGKVYDYAINPNKQGVVIDVLIERRFTDLVKKGSRFWNVSGVDANVSISGAKVKLESLAALVNGAIAFDSPEESKPAEAEDTFGLYEDLAHSQRGVIIKLELPSGAGLTADSTPLMYQGLEVGQLTKLDLNPGGKVTGEMTVDPSVVTLLRENTRIELRNPKLSLSDANLSALLTGKTFELVPGDGEPRKEFVVVPGEKALLHEPDVLTLTLTAPESYGIDAGQPLILHGVQVGQVIDRKLTSKGVTFTVAIEPQHRELVKGDSKFVVNSRVDVKVGLDGVEFLGASASEWINGGIRILPGDKGEMKASYPLYANLEKALENSLSDLPTTTVSLSAETLPDVQAGSVVLYRKFEVGEVITVRPRANAFDIDLHIKPEYRNLLTSNSVFWAEGGAKVQLNGSGLTVQASPLSRALKGAISFDNLSGASASQRKGDKRILYASETAARAVGGQITLHAFDAGKLAVGMPIRYLGIDIGQIQTLDLITARNEVQAKAVLYPEYVQTFARGGTRFSVVTPQISAAGVEHLDTILQPYINVEPGRGNPRRDFELQEATITDSRYLDGLSIIVEAPEAGSLGIGTPVLFRGLEVGTVTGMTLGTLSDRVMIAMRISKRYQHLVRNNSVFWLASGYSLDFGLTGGVVKTGTFNQFIRGGIAFATPPGTPLAPKAQEGKHFLLQESEPKEWREWGTALPK
B2: LetB four-ring truncation mutant (rings 2-4 deleted), TM helix removed (domain or fragment)
chain: QDRGNTVTIDFMSADGIVPGRTPVRYQGVEVGTVQDISLSDDLRKIEVKVSIKSDMKDALREETQFWLVTPKASLAGVSGLDALVGGNYIGMMPGKGKEQDHFVALDTQPKYRLDNGNLEKALENSLSDLPTTTVSLSAETLPDVQAGSVVLYRKFEVGEVITVRPRANAFDIDLHIKPEYRNLLTSNSVFWAEGGAKVQLNGSGLTVQASPLSRALKGAISFDNLSGASASQRKGDKRILYASETAARAVGGQITLHAFDAGKLAVGMPIRYLGIDIGQIQTLDLITARNEVQAKAVLYPEYVQTFARGGTRFSVVTPQISAAGVEHLDTILQPYINVEPGRGNPRRDFELQEATITDSRYLDGLSIIVEAPEAGSLGIGTPVLFRGLEVGTVTGMTLGTLSDRVMIAMRISKRYQHLVRNNSVFWLASGYSLDFGLTGGVVKTGTFNQFIRGGIAFATPPGTPLAPKAQEGKHFLLQESEPKEWREWGTALPK
B3: LetB six-ring truncation mutant (ring 6 deleted), TM helix removed (domain or fragment)
chain: QDRGNTVTIDFMSADGIVPGRTPVRYQGVEVGTVQDISLSDDLRKIEVKVSIKSDMKDALREETQFWLVTPKASLAGVSGLDALVGGNYIGMMPGKGKEQDHFVALDTQPKYRLDNGDLMIHLQAPDLGSLNSGSLVYFRKIPVGKVYDYAINPNKQGVVIDVLIERRFTDLVKKGSRFWNVSGVDANVSISGAKVKLESLAALVNGAIAFDSPEESKPAEAEDTFGLYEDLAHSQRGVIIKLELPSGAGLTADSTPLMYQGLEVGQLTKLDLNPGGKVTGEMTVDPSVVTLLRENTRIELRNPKLSLSDANLSALLTGKTFELVPGDGEPRKEFVVVPGEKALLHEPDVLTLTLTAPESYGIDAGQPLILHGVQVGQVIDRKLTSKGVTFTVAIEPQHRELVKGDSKFVVNSRVDVKVGLDGVEFLGASASEWINGGIRILPGDKGEMKASYPLYANLEKALENSLSDLPTTTVSLSAETLPDVQAGSVVLYRKFEVGEVITVRPRANAFDIDLHIKPEYRNLLTSNSVFWAEGGAKVQLNGSGLTVQASPLSRALKGAISFDNLSGASASQRKGDKRILYASETAARAVTITDSRYLDGLSIIVEAPEAGSLGIGTPVLFRGLEVGTVTGMTLGTLSDRVMIAMRISKRYQHLVRNNSVFWLASGYSLDFGLTGGVVKTGTFNQFIRGGIAFATPPGTPLAPKAQEGKHFLLQESEPKEWREWGTALPK
B4: LetB five-ring truncation mutant (rings 5 and 6 deleted), TM helix removed (domain or fragment)
chain: QDRGNTVTIDFMSADGIVPGRTPVRYQGVEVGTVQDISLSDDLRKIEVKVSIKSDMKDALREETQFWLVTPKASLAGVSGLDALVGGNYIGMMPGKGKEQDHFVALDTQPKYRLDNGDLMIHLQAPDLGSLNSGSLVYFRKIPVGKVYDYAINPNKQGVVIDVLIERRFTDLVKKGSRFWNVSGVDANVSISGAKVKLESLAALVNGAIAFDSPEESKPAEAEDTFGLYEDLAHSQRGVIIKLELPSGAGLTADSTPLMYQGLEVGQLTKLDLNPGGKVTGEMTVDPSVVTLLRENTRIELRNPKLSLSDANLSALLTGKTFELVPGDGEPRKEFVVVPGEKALLHEPDVLTLTLTAPESYGIDAGQPLILHGVQVGQVIDRKLTSKGVTFTVAIEPQHRELVKGDSKFVVNSRVDVKVGLDGVEFLGASASEWINGGIRILPGDKGEMKASYPLYANLEKALENSLSDLPTTITDSRYLDGLSIIVEAPEAGSLGIGTPVLFRGLEVGTVTGMTLGTLSDRVMIAMRISKRYQHLVRNNSVFWLASGYSLDFGLTGGVVKTGTFNQFIRGGIAFATPPGTPLAPKAQEGKHFLLQESEPKEWREWGTALPK

Tests used:
[1] = molecular target: the molecule itself; assay: cryo-EM structure
[2] = molecular target: the molecule itself; assay: negative stain EM

Protein	stoichiometry N [1]	stoichiometry N [2]
B1	6	–
B2	–	6
B3	–	6
B4	–	6

— article doi:10.1101/748145 (bioRxiv, 2019)
